# Results from patent US20130224191A1, “NOTUM PROTEIN MODULATORS AND METHODS OF USE” (priority 2010, published 2013).
# Numbering of substitutions follows the chain as printed.
# T1: Notum (Homo sapiens, UniProt Q6P988)
# T1 sequence (Q6P988 20-496): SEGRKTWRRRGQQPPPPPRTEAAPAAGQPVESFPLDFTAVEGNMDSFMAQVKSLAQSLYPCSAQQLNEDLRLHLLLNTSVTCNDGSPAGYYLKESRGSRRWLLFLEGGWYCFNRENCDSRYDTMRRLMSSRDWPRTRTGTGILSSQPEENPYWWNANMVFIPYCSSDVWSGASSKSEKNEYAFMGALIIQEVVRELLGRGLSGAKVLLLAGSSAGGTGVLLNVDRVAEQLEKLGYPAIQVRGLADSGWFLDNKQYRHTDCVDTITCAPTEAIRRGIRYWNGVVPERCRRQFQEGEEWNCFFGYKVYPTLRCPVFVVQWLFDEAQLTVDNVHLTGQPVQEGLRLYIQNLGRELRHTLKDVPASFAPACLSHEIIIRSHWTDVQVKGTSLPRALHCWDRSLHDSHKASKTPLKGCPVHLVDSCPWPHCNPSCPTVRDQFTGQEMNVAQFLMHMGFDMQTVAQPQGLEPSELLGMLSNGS
# T2: chimeric human/mouse Notum (Homo sapiens, UniProt Q6P988, A205S/A256S/E196D/E289D/E487K/H276R/H373G/H396Y/K251E/L360Q/L418F/L429M/L483M/M474V/N299S/P379Q/P480Q/Q248L/Q311K/R218K/R307Q/R361W/S193P/T277S/T284N/V280I/V301M/V434F/V452I/Y171H)
# T2 construct: human mature Notum protein (residues 19-144) fused to the mouse Notum (mouse residues 150-484); His tag; made in house
# T2 sequence (Q6P988 with tags, fused parts or gaps Y171H/S193P/E196D/A205S/R218K/Q248L/K251E/A256S/H276R/T277S/V280I/T284N/E289D/N299S/V301M/R307Q/Q311K/L360Q/R361W/H373G/P379Q/H396Y/L418F/L429M/V434F/V452I/M474V/P480Q/L483M/E487K): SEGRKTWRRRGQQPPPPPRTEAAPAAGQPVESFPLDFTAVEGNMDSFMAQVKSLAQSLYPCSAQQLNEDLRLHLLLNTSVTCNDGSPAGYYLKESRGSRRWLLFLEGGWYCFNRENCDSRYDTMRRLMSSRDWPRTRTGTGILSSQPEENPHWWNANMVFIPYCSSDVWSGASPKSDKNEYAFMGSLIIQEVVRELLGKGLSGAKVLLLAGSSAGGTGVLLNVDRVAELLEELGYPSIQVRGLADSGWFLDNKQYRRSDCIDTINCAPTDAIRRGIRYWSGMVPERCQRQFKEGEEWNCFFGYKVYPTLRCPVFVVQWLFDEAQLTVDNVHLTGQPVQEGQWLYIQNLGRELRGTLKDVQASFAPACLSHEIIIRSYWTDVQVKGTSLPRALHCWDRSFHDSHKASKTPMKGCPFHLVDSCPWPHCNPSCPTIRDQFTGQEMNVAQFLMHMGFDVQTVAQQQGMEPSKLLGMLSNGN
# T3: human Notum D141N, D141S (Homo sapiens, UniProt Q6P988, D141N)
# T3 construct: made in house
# T3 sequence (Q6P988 20-496 D141N): T1 sequence (Q6P988 20-496) with D122N
# B1: SC2.D2.2 (antibody, V domains shown)
# VH: DVQLVESGGGLVQPGGSRKISCAASGFTFSSYGMHWVRQAPEKGLEWVAYISSSTVTTYYADTVKGRFTISRDNANNTLFLQMTSLRSEDTAMYYCSRQNWDGGYFDVWGAGTTVTVSS
# VL: DIVLTQSLASLAVSLGQRATISCRASKSVSSSGYSYMHWYQQKPGQPPKLLIYLASNLESGVPARFSGSGSGTDFTLNIHPVEEEDAATYYCQHSRALPLTFGAGTKLELKR
# notes: also called murine SC2.D2.2
# Columns and labels:
# Notum = target: T1, Notum; experiment: Epitope mapping ELISA, human Notum; type: binding; set-up: made in house
# Procedure: (§1) Binding of SC2.D2.2 and other mouse mAbs to purified Notum molecules generated from transient transfection of Human and Mouse Notum cDNAs were tested using ELISA assay with human Notum, mouse Notum and chimeric human/mouse Notum coated directly on ELISA plate. Binding of anti-Notum mAbs was detected with HRP-conjugated goat anti mouse antibody and followed by colorimetric horseradish peroxidase substrate (TMB substrate Thermo Scientific). The absorbance of each well of the ELISA plates was measured at 450 nm on a microplate autoreader.
# human Notum D141N, D141S [1] = experiment: Neutralization of point mutated human Notum, 4-MUH assay; type: biochemical
# Procedure: In addition to the assays described in Examples 23 and 24, a fluorescent esterase substrate, 4-methylumbelliferyl heptanoate (Sigma), can be used to measure the activity of hydrolases using standard assay conditions (Richardson and Smith, 2007, PMID: 17620441; Jacks and Kircher, 1967, PMID: 5582971). Briefly, 4-MUH was dissolved in DMSO to a final concentration of 1.2 mM. This substrate was diluted 1:10 into assay buffer (0.1M Tris, pH 7.5, 50 mM NaCl, 0.05% Brij) and incubated with defined amounts of Notum enzyme or point-mutated Notum enzymes, and enzymatic release of the fluorescent molecule 4-methylumbelliferone monitored (355 nm excitation, 460 nm emission) using a Wallac Victor3 Multilabel Counter (Perkin Elmer).
# (§2) Similarly, the macaque residue at this position was point mutated to the human residue (N141D). […] However, these point mutants differed in their ability to be neutralized by SC2.D2.2 (FIG. 26).
# [2] = target: T2, chimeric human/mouse Notum; experiment: Epitope mapping ELISA, chimeric Notum; type: binding
# Excerpt: To better understand the structural basis for the interaction of SC2.D2.2 with human Notum, a chimeric Notum protein was fabricated. This approach takes advantage of the fact that the orthologs are structurally related. To that end a chimeric Notum molecule composed of the N terminal of the human mature Notum protein (residues 19-144) fused to the mouse Notum (mouse residues 150-484) (genes both consistent with Example 7) was generated and expressed in a similar manner to that set forth in previous Examples. The BamHI restriction cleavage site in human Notum gene was used for construction of in-frame fusion Notum chimeric protein. An expression vector was then constructed containing the His tagged chimeric Notum sequence.
# as §1
# human Notum D141N, D141S [3] = target: T3, human Notum D141N, D141S; experiment: Neutralization of point mutated human Notum, TCF assay; type: cell-based; details: human D141N or D141S
# Excerpt: as §2
molecule,measurement,setting,value
B1,binding to human Notum,Notum,confirmed the binding
same,neutralization of mutant Notum protein,"human Notum D141N, D141S [1]",eliminated the ability of SC2.D2.2 to neutralize the resultant protein
same,binding to Notum chimeric protein,[2],confirmed the binding
same,location of epitope,[2],within the first 135 residues of the N terminus of the human Notum protein
same,neutralization of mutant Notum protein,"human Notum D141N, D141S [3]",eliminated the ability of SC2.D2.2 to neutralize the mutant Notum protein
